Source: paper PMC7531572

Target: mAb1 wild-type (monoclonal antibody IgG1) (human)
Test: SPR

B1: recombinant mouse FcγRIV (receptor)
chain: GLQKAVVNLDPKWVRVLEEDSVTLRCQGTFSPEDNSIKWFHNESLIPHQDANYVIQSARVKDSGMYRCQTALSTISDPVQLEVHMGWLLLQTTKWLFQEGDPIHLRCHSWQNRPVRKVTYLQNGKGKKYFHENSELLIPKATHNDSGSYFCRGLIGHNNKSSASFRISLGDPGSPSMFPPWHQ
% of maximal binding response of wild-type antibody: 100%
